According to US20230272055A1 (Incyte, published 2023):
Numbering of substitutions follows the chain as printed. Names may count otherwise.

B1: anti-mutCALR antibody clone 55 (antibody, human IgG1, lambda, N297A)
heavy: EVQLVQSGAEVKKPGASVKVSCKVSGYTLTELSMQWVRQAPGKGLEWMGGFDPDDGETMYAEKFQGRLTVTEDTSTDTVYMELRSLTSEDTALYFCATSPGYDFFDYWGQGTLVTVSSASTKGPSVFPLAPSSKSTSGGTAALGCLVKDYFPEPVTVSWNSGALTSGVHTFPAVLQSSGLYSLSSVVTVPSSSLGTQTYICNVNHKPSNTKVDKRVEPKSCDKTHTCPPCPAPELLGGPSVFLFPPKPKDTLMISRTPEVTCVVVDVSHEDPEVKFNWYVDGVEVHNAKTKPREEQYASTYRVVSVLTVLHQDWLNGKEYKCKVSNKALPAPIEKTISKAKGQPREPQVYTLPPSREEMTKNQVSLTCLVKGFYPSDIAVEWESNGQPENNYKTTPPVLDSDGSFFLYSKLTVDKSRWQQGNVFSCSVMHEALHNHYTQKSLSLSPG
light: QSALTQPASVSGSPGQSITISCTGTSSDVGGYNYVSWYQQHPGKAPKLMIYEVSNRPSGVSNRFSGSNSGNTATLTINRVEAGDEADYYCQVWDSSNDLLIFGGGTKLTVLGQPKAAPSVTLFPPSSEELQANKATLVCLISDFYPGAVTVAWKADSSPVKAGVETTTPSKQSNNKYAASSYLSLTPEQWKSHRSYSCQVTHEGSTVEKTVAPTECS
notes: human IgG1 N297A variant of clone 6; also called antibody 55
B2: anti-mutCALR antibody clone 56 (antibody, human IgG1, lambda, N297A, V domains shown)
VH: EVQLVQSGAEVKKPGASVKVSCKVSGYTLTELSMQWVRQAPGKGLEWMGGFDPDAGETMYAEKFQGRLTVTEDTSTDTVYMELRSLTSEDTALYFCATSPGYDFFDYWGQGTLVTVSS
VL: QSALTQPASVSGSPGQSITISCTGTSSDVGGYNYVSWYQQHPGKAPKLMIYEVSNRPSGVSNRFSGSNSGNTATLTINRVEAGDEADYYCQVWDSSNDLLIFGGGTKLTVLG
notes: human IgG1 N297A variant of clone 6
B3: anti-mutCALR antibody clone 58 (antibody, human IgG1, lambda, N297A, V domains shown)
VH: B2 VH with A55E
VL: B2 VL
notes: as for B2
B4: anti-mutCALR antibody clone 57 (antibody, human IgG1, lambda, N297A, V domains shown)
VH: B2 VH with A55S
VL: B2 VL
notes: as for B2
B5: anti-mutCALR antibody clone 64 (antibody, human IgG1, lambda, N297A, V domains shown)
VH: B2 VH with A55D, G56A, R84S, T87R, L93V
VL: B2 VL
notes: as for B2
B6: anti-mutCALR antibody clone 59 (antibody, human IgG1, lambda, N297A, V domains shown)
VH: B2 VH with A55D, G56A
VL: B2 VL
notes: as for B2
B7: anti-mutCALR antibody clone 63 (antibody, human IgG1, lambda, N297A, V domains shown)
VH: B2 VH with A55E, R84S, T87R, L93V
VL: B2 VL
notes: as for B2
B8: anti-mutCALR antibody clone 61 (antibody, human IgG1, lambda, N297A, V domains shown)
VH: B2 VH with R84S, T87R, L93V
VL: B2 VL
notes: as for B2
B9: anti-mutCALR antibody clone 62 (antibody, human IgG1, lambda, N297A, V domains shown)
VH: B2 VH with A55S, R84S, T87R, L93V
VL: B2 VL
notes: as for B2
B10: anti-mutCALR antibody clone 60 (antibody, human IgG1, lambda, N297A, V domains shown)
VH: B2 VH with A55D, R84S, T87R, L93V
VL: B2 VL
notes: as for B2
B11: anti-mutCALR antibody clone 142 (antibody, human IgG1, lambda, N297A, V domains shown)
VH: B2 VH with A55E, R84S, T87R, L93V
VL: SYVLTQPPSVSVAPGKTARITCGGDNIGSKSVHWYQQKPGQAPVLVVYDDSDRPSGIPERFSGSNSGNTATLTISRVEAGDEADYYCQVWDSSNDLLIFGGGTKLTVLG
notes: human IgG1 N297A variant of clone 15
B12: anti-mutCALR antibody clone 70 (antibody, human IgG1, lambda, N297A, V domains shown)
VH: B2 VH with A55D, R84S, T87R, L93V
VL: SYVLTQPPSVSVAPGKTARITCTGTSSDVGGYNYVSWYQQKPGQAPVLVVYEVSNRPSGIPERFSGSNSGNTATLTISRVEAGDEADYYCQVWDSSNDLLIFGGGTKLTVLG
notes: as for B2
B13: anti-mutCALR antibody clone 183 (antibody, human IgG1, lambda, N297A, V domains shown)
VH: B2 VH with A55E
VL: B11 VL with K16Q, D25S, N26D, S29D, K30E, S31I, N94S, L96H
B14: anti-mutCALR antibody clone 71 (antibody, human IgG1, lambda, N297A, V domains shown)
VH: B2 VH with R84S, T87R, L93V
VL: B12 VL
notes: as for B2
B15: anti-mutCALR antibody clone 67 (antibody, human IgG1, lambda, N297A, V domains shown)
VH: B2 VH with A55S
VL: B12 VL
notes: as for B2
B16: anti-mutCALR antibody clone 171 (antibody, human IgG1, lambda, N297A, V domains shown)
VH: B2 VH
VL: B11 VL with K16Q, D25S, N26D, S29D, K30E, S31I, V77A, E78Q, N94S, L96H
notes: human IgG1 N297A variant of clone 17
B17: anti-mutCALR antibody clone 186 (antibody, human IgG1, lambda, N297A, V domains shown)
VH: B2 VH with R84S, T87R, L93V
VL: B11 VL with K16Q, D25S, N26D, S29D, K30E, S31I, N94S, L96H
notes: as for B16
B18: anti-mutCALR antibody clone 180 (antibody, human IgG1, lambda, N297A, V domains shown)
VH: B2 VH with A55D
VL: B11 VL with K16Q, D25S, N26D, S29D, K30E, S31I, N94S, L96H
notes: as for B16
B19: anti-mutCALR antibody clone 69 (antibody, human IgG1, lambda, N297A, V domains shown)
VH: B2 VH with A55D, G56A
VL: B12 VL
notes: as for B2
B20: anti-mutCALR antibody clone 187 (antibody, human IgG1, lambda, N297A, V domains shown)
VH: B2 VH with A55S, R84S, T87R, L93V
VL: B11 VL with K16Q, D25S, N26D, S29D, K30E, S31I, N94S, L96H
notes: as for B16
B21: anti-mutCALR antibody clone 173 (antibody, human IgG1, lambda, N297A, V domains shown)
VH: B2 VH with A55E
VL: B11 VL with K16Q, D25S, N26D, S29D, K30E, S31I, V77A, E78Q, N94S, L96H
B22: anti-mutCALR antibody clone 170 (antibody, human IgG1, lambda, N297A)
heavy: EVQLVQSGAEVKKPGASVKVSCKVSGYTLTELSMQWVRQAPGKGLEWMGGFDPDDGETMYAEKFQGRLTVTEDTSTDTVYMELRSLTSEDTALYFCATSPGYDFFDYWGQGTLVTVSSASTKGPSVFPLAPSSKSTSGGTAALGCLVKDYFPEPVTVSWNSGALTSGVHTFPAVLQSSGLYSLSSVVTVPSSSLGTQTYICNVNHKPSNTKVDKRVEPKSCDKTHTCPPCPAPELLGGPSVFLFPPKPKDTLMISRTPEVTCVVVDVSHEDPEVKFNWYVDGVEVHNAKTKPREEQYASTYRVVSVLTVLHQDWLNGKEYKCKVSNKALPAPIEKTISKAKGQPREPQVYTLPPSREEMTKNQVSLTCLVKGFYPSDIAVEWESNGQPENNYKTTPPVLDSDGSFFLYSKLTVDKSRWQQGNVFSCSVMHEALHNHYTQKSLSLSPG
light: SYVLTQPPSVSVAPGQTARITCGGSDIGDEIVHWYQQKPGQAPVLVVYDDSDRPSGIPERFSGSNSGNTATLTISRAQAGDEADYYCQVWDSSSDHLIFGGGTKLTVLGQPKAAPSVTLFPPSSEELQANKATLVCLISDFYPGAVTVAWKADSSPVKAGVETTTPSKQSNNKYAASSYLSLTPEQWKSHRSYSCQVTHEGSTVEKTVAPTECS
notes: as for B16
B23: anti-mutCALR antibody clone 188 (antibody, human IgG1, lambda, N297A, V domains shown)
VH: B2 VH with A55E, R84S, T87R, L93V
VL: B11 VL with K16Q, D25S, N26D, S29D, K30E, S31I, N94S, L96H
notes: as for B16
B24: anti-mutCALR antibody clone 174 (antibody, human IgG1, lambda, N297A, V domains shown)
VH: B2 VH with A55D, G56A
VL: B11 VL with K16Q, D25S, N26D, S29D, K30E, S31I, V77A, E78Q, N94S, L96H
B25: anti-mutCALR antibody clone 143 (antibody, human IgG1, lambda, N297A, V domains shown)
VH: B2 VH with A55D, G56A, R84S, T87R, L93V
VL: B11 VL
notes: as for B11
B26: anti-mutCALR antibody clone 185 (antibody, human IgG1, lambda, N297A, V domains shown)
VH: B2 VH with A55D, R84S, T87R, L93V
VL: B11 VL with K16Q, D25S, N26D, S29D, K30E, S31I, N94S, L96H
notes: as for B16
B27: anti-mutCALR antibody clone 172 (antibody, human IgG1, lambda, N297A, V domains shown)
VH: B2 VH with A55S
VL: B11 VL with K16Q, D25S, N26D, S29D, K30E, S31I, V77A, E78Q, N94S, L96H
notes: as for B16
B28: anti-mutCALR antibody clone 189 (antibody, human IgG1, lambda, N297A, V domains shown)
VH: B2 VH with A55D, G56A, R84S, T87R, L93V
VL: B11 VL with K16Q, D25S, N26D, S29D, K30E, S31I, N94S, L96H
B29: anti-mutCALR antibody clone 182 (antibody, human IgG1, lambda, N297A, V domains shown)
VH: B2 VH with A55S
VL: B11 VL with K16Q, D25S, N26D, S29D, K30E, S31I, N94S, L96H
notes: as for B16
B30: anti-mutCALR antibody clone 181 (antibody, human IgG1, lambda, N297A, V domains shown)
VH: B2 VH
VL: B11 VL with K16Q, D25S, N26D, S29D, K30E, S31I, N94S, L96H
notes: as for B16
B31: anti-mutCALR antibody clone 184 (antibody, human IgG1, lambda, N297A, V domains shown)
VH: B2 VH with A55D, G56A
VL: B11 VL with K16Q, D25S, N26D, S29D, K30E, S31I, N94S, L96H
notes: as for B16
B32: anti-mutCALR antibody clone 66 (antibody, human IgG1, lambda, N297A, V domains shown)
VH: B2 VH
VL: B12 VL
notes: as for B2
B33: anti-mutCALR antibody clone 68 (antibody, human IgG1, lambda, N297A, V domains shown)
VH: B2 VH with A55E
VL: B12 VL
notes: as for B2

target: T1, Recombinant MBP-mutCALR Type 1 fusion protein (human); assay: SPR, IgG captured, 1:1 fit, Exp. 2
T1 construct: custom made at Cepter; also called recombinant mutCALR protein
Description: Experiment 2: Recombinant MBP-mutCALR Type 1 fusion protein was custom made at Cepter (cepterbiopartners.com). Data for the interaction of antibodies with recombinant mutCALR protein were collected at 25° C. on a Biacore 8K instrument (Cytiva, Marlborough, Mass.), and all reagents were obtained from Cytiva unless otherwise specified. The experiments were conducted using Tris-buffered saline (pH 7.2), 0.005% Surfactant P20, 1 mM CaCl₂) as running buffer. To prepare the capture surfaces, anti-human IgG (Fc) antibodies (Product #29234600) was amine-coupled onto a CM4 chip (Product #BR100534) under standard conditions using an Amine Coupling Kit (Product #BR100050). […] The kinetics parameters were obtained by applying 1:1 binding model to fit the data from multiple-cycle injection experiments using Biacore Insight Evaluation software.

| Binder | Kd [nM] | koff [s⁻¹] | kon [M⁻¹ s⁻¹] |
| --- | --- | --- | --- |
| B1 | 0.171 | 0.000911 | 5.32e+06 |
| B2 | 3.08 | 0.00212 | 690000 |
| B3 | 0.343 | 0.00232 | 6.76e+06 |
| B4 | 0.637 | 0.0039 | 6.12e+06 |
| B5 | 0.638 | 0.00248 | 3.89e+06 |
| B6 | 1.44 | 0.00136 | 945000 |
| B7 | 0.244 | 0.000691 | 2.83e+06 |
| B8 | 0.893 | 0.00369 | 4.13e+06 |
| B9 | 1.76 | 0.00621 | 3.52e+06 |
| B10 | 1.15 | 0.00166 | 1.44e+06 |
| B11 | 2.27 | 0.00269 | 1.19e+06 |
| B12 | 0.966 | 0.000953 | 987000 |
| B13 | 1 | 0.00124 | 1.23e+06 |
| B14 | 2.31 | 0.0107 | 4.63e+06 |
| B15 | 3.34 | 0.0102 | 3.05e+06 |
| B16 | 1.65 | 0.0109 | 6.57e+06 |
| B17 | 2.86 | 0.00243 | 848000 |

| Binder | Kd [nM] | koff [s⁻¹] | kon [M⁻¹ s⁻¹] |
| --- | --- | --- | --- |
| B18 | 0.198 | 0.127 | > 1e+07 |
| B19 | 0.53 | 0.00527 | 9.94e+06 |
| B20 | 1.59 | 0.0163 | 1e+07 |
| B21 | 0.653 | 0.00349 | 5.35e+06 |
| B22 | 0.419 | 0.00179 | 4.27e+06 |
| B23 | 1.65 | 0.00121 | 732000 |
| B24 | 0.526 | 0.0041 | 7.8e+06 |
| B25 | 1.31 | 0.00753 | 5.74e+06 |
| B26 | 0.171 | 0.000911 | 5.32e+06 |
| B27 | 2.24 | 0.0025 | 1.12e+06 |
| B28 | 0.422 | 0.0153 | > 1e+07 |
| B29 | 1.23 | 0.00692 | 5.62e+06 |
| B30 | 1.58 | 0.0209 | 1e+07 |
| B31 | 1.57 | 0.000673 | 428000 |
| B32 | 2.36 | 0.00836 | 3.54e+06 |
| B33 | 1.15 | 0.00166 | 1.44e+06 |
